Experiment [1] concerns the target T1, mPD1-G1CH2 (mouse).
T1 construct: Whole entry named; also called Fc-fused murine PD1
As to the kind of experiment: competition ELISA: mPD1-G1CH2 coated on the plate, mPDL1-G1dCH2His (55 nM) as the blocked ligand; 1, 10 and 100 uM ATP (curves overlap). (In general: An ELISA detects its analyte on a solid surface through an enzyme-linked reagent.)

In experiment [2] the target is T2, hIL6R (human, UniProt P08887 20-357).
T2 construct: Purified from culture supernatant of a CHO line; whole entry named; also called human interleukin 6 receptor (purified antigen from hIL6R-CHO supernatant)
T2 sequence: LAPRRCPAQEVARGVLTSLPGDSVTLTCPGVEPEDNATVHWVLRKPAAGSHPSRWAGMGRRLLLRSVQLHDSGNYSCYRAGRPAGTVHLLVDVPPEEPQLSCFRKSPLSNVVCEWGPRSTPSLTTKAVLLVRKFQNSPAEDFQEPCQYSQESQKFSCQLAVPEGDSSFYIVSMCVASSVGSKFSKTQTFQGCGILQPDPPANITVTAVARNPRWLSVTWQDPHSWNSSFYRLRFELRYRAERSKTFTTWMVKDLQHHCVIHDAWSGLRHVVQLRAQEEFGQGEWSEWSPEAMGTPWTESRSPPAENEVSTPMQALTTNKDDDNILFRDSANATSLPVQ
As to the kind of experiment: SPR 37C, mean; ATP 100 uM.

Experiment [3] deals with T2, hIL6R. Description: SPR 37C; AMP 100 uM.
In experiment [4] the target is T2, hIL6R. As to the kind of experiment: SPR 37C, mean; ATP 1 uM.
In experiment [5] the target is T2, hIL6R. As to the kind of experiment: SPR 37C; ADP 10 uM.
In experiment [6] the target is T2, hIL6R. As to the kind of experiment: SPR 37C; AMP 10 uM.
The target of experiment [7] is T2, hIL6R. Description: SPR 37C, mean; ATP 10 uM.
Experiment [8] concerns the target T2, hIL6R. As to the kind of experiment: SPR 37C; ADP 100 uM.
The target of experiment [9] is T2, hIL6R. Description: SPR 37C, mean; ATP 100 uM; ATP 100 uM; mean.
The target of experiment [10] is T1, mPD1-G1CH2. As to the kind of experiment: competition ELISA: mPD1-G1CH2 coated on the plate, mPDL1-G1dCH2His (55 nM) as the blocked ligand; 0, 1, 10 and 100 uM ATP (curves overlap).
Experiment [11] addresses T1, mPD1-G1CH2. The experiment is described as above. The source holds these as a separate data set.
Experiment [12] addresses T3, hCD137(FXa digested) (human, UniProt Q07011 24-186).
T3 construct: also called human CD137 extracellular domain
As to the kind of experiment: SPR 37C; ATP 10 uM.

The target of experiment [13] is T3, hCD137(FXa digested). Description: SPR 37C; ATP 100 uM.
The target of experiment [14] is T3, hCD137(FXa digested). As to the kind of experiment: SPR 37C; ATP 1 uM.
Experiment [15] deals with T3, hCD137(FXa digested). As to the kind of experiment: SPR 37C; no ATP.
For the next experiment, the target named is T4, hCD137.1.2-F.G1d (human).
T4 construct: Portion of the human CD137 extracellular region linked to an antibody constant region
As to the kind of experiment: ELISA; 500 uM kynurenine, Ab 10 ug/mL.

For a further experiment, the target named is T5, hCD137.1-F-G1d (human).
T5 construct: Portion of the human CD137 extracellular region linked to an antibody constant region
As to the kind of experiment: ELISA; 500 uM kynurenine, Ab 10 ug/mL.

For another experiment, the target named is T6, hCD137.3.4-F.G1d (human).
T6 construct: Portion of the human CD137 extracellular region linked to an antibody constant region
As to the kind of experiment: ELISA; 500 uM kynurenine, Ab 10 ug/mL.

The target in another experiment is T7, hCD137.2.4-F.G1d (human).
T7 construct: Portion of the human CD137 extracellular region linked to an antibody constant region
As to the kind of experiment: ELISA; 500 uM kynurenine, Ab 10 ug/mL.

For another experiment, the target named is T8, hCD137.2.3-F.G1d (human).
T8 construct: Portion of the human CD137 extracellular region linked to an antibody constant region
Description: ELISA; 500 uM kynurenine, Ab 10 ug/mL.

B1: H5041-mFa31/L3023-ml0 (antibody, mouse IgG2a, V domains shown)
VH: EVQLVESGGGLVKPGGSLRLSCAASGFTFNTYTMHWVRQAPGKGLEWVSSISSSSKHIYYADSVKGRFTISRDNAKNSLYLQMNSLRAEDTAVYYCARYGRPWELLWVLDYWGQGTLVTVSS
VL: QSALTQPPSASGSPGQTVTISCTGTSTPSGAYDYVSWYQQHPGKAPKLMIYQVSKRPSGVPDRFSGSKSGNTASLTVSGLQAEDEADYFCSTTNSAWDPDFGGGTKLTVLQ
notes: the text of the results names L3021
As for B1, the “IC50 (read off the curve)” value with mPD1-G1CH2 [1] is about 0.8 µg/mL.

B2: H0052-G4T1/L1083-lam1 (antibody, human IgG4 S228P, lambda, V domains shown)
VH: EVQLVESGGDLVKPGGGLRLSCAASGFTFSSYTMNWVRQAPGKGLEWVSSISSRSYHIYYADSVDGRFTISRDNAKNSLYLQMNSLRAEDTAVYYCARYGKLYSLNWVFDYWGQGTLVTVSS
VL: QSALTQPPSASGSPGQTVTISCTGTSTDVGDYAYVSWYQQHPGKAPKLMIYYVDKKPSGVPDRFSGSKSGNTASLTVSGLQAEDEADYFCSLRSPGPYPLFGGGTKLTVLG
B2: the dissociation constant Kd (as a rule, the constant that tells how readily two partners part at equilibrium) with hIL6R [2] was 8.31 nM; with hIL6R [3], 118 nM; with hIL6R [4], 1450 nM; in the experiment with hIL6R [5], 58.1 nM; with hIL6R [6], 6.64 µM; with hIL6R [7], 50.5 nM. In the experiment with hIL6R [8], this molecule registered a dissociation constant (Kd) of 10.1 nM.

B3: H0002-G4T1/L1058-lam1 (antibody, human IgG4 S228P, lambda, V domains shown)
VH: EVQLVESGGDLVKPGGGLRLSCAASGFTFSSYTMNWVRQAPGKGLEWVSSISSRSYHAYYADSVKGRFTISRDNAKNSLYLQMNSLRAEDTAVYYCARYGKLYSLNWVFDYWGQGTLVTVSS
VL: QSALTQPPSASGSPGQTVTISCTGTSTDVGDYNYVSWYQQHPGKAPKLMIYEVVKKPSGVPDRFSGSKSGNTASLTVSGLQAEDEADYFCSLRSAGPYPLFGGGTKLTVLG
B3 displayed a dissociation constant Kd with hIL6R [9] of 1160 nM.

B4: mPD1F2VH-mF18/mPD1F2VL-mk1 (antibody, mouse IgG1, kappa, V domains shown)
VH: EVQLVQSGGGVVQPGRSLRLSCAASGFTFSSYWMSWVRQAPGKGLEWVSAISGSGGSTYYADSVKGRFTISRDNSKNTLYLQMNSLRAEDTAVYYCAKENWGSYFDLWGQGTTVTVSS
VL: DIVMTQSPSTLSASVGDRVTITCRASQGISSWLAWYQQKPGRAPKVLIYKASTLESGVPSRFSGSGSGTDFTLTISSLQPEDFATYYCQQSYSTPWTFGQGTKLEIKR
notes: Control anti-PD1 antibody; also called mPD1F2VH-mF18/mPD1F2VL-mkl
Regarding B4, the “IC50 (read off the curve)” value with mPD1-G1CH2 [10] and in the experiment with mPD1-G1CH2 [11] was about 0.6 µg/mL in each case.

B5: 20H4.9-MB110/20H4.9LC-mk0 (antibody, mouse IgG1, kappa)
heavy: QVQLQQWGAGLLKPSETLSLTCAVYGGSFSGYYWSWIRQSPEKGLEWIGEINHGGYVTYNPSLESRVTISVDTSKNQFSLKLSSVTAADTAVYYCARDYGPGNYDWYFDLWGRGTLVTVSSAKTTPPSVYPLAPGSAAQTNSMVTLGCLVKGYFPEPVTVTWNSGSLSSGVHTFPAVLQSDLYTLSSSVTVPSSTWPSETVTCNVAHPASSTKVDKKIVPRDCGCKPCICTVPEVSDVFIFPPKPKDVLTITLTPKVTCVVVDISKDDPEVQFSWFVDDVEVHTAQTQPREEQFNSTFRSVSELPIMHQDWLNGKEFKCRVNSAAFPAPIEKTISKTKGRPKAPQVYTIPPPKEQMAKDKVSLTCMITDFFPEDITVEWQWNGQPAENYKNTQPIMDTDGSYFVYSKLNVQKSNWEAGNTFTCSVLHEGLHNHHTEKSLSHSPGK
light: EIVLTQSPATLSLSPGERATLSCRASQSVSSYLAWYQQKPGQAPRLLIYDASNRATGIPARFSGSGSGTDFTLTISSLEPEDFAVYYCQQRSNWPPALTFGGGTKVEIKRADAAPTVSIFPPSSEQLTSGGASVVCFLNNFYPKDINVKWKIDGSERQNGVLNSWTDQDSKDSTYSMSSTLTLTKDEYERHNSYTCEATHKTSTSPIVKSFNRNEC
notes: also called NS1-MB110
Regarding B5, the equilibrium dissociation constant (Kd) in the experiment with hCD137(FXa digested) [12] came to 53.9 nM; with hCD137(FXa digested) [13], 51.9 nM; with hCD137(FXa digested) [14] it was 56.5 nM; with hCD137(FXa digested) [15], 61 nM.

B6: 20H4.9-MB492/20H4.9LC-mk0 (antibody, mouse IgG1, kappa)
heavy: QVQLQQWGAGLLKPSETLSLTCAVYGGSFSGYYWSWIRQSPEKGLEWIGEINHGGYVTYNPSLESRVTISVDTSKNQFSLKLSSVTAADTAVYYCARDYGPGNYDWYFDLWGRGTLVTVSSAKTTPPSVYPLAPGSAAQTNSMVTLGCLVKGYFPEPVTVTWNSGSLSSGVHTFPAVLQSDLYTLSSSVTVPSSTWPSETVTCNVAHPASSTKVDKKIVPRDCGCKPCICEPNEVEDVFIFPPKPKDVLTITLTPKVTCVVVDISKDDPEVQFSWFVDDVEVHTAQTQPREEQFNSTFRSVSELPIMHQDWLNGKEFKCRVDSAAFPAPIEKTISKTKGRPKAPQVYTIPPPKEQMAKDKVSLTCMITDFFPEDITVEWQWNGQPAENYKNTQPIMDTDGSYFVYSKLNVQKSNWEAGNTFTCSVLHEGLHNHHTEKSLSHSPGK
light: EIVLTQSPATLSLSPGERATLSCRASQSVSSYLAWYQQKPGQAPRLLIYDASNRATGIPARFSGSGSGTDFTLTISSLEPEDFAVYYCQQRSNWPPALTFGGGTKVEIKRADAAPTVSIFPPSSEQLTSGGASVVCFLNNFYPKDINVKWKIDGSERQNGVLNSWTDQDSKDSTYSMSSTLTLTKDEYERHNSYTCEATHKTSTSPIVKSFNRNEC
notes: also called NS1-MB492
On to B6, for which the dissociation constant Kd with hCD137(FXa digested) [12] worked out at 53.5 nM; with hCD137(FXa digested) [13], 50.4 nM; in the experiment with hCD137(FXa digested) [14] it was 54.9 nM; with hCD137(FXa digested) [15], 61.6 nM.

B7: 20H4.9-mIgG1/20H4.9LC-mk0 (antibody)
heavy: QVQLQQWGAGLLKPSETLSLTCAVYGGSFSGYYWSWIRQSPEKGLEWIGEINHGGYVTYNPSLESRVTISVDTSKNQFSLKLSSVTAADTAVYYCARDYGPGNYDWYFDLWGRGTLVTVSSAKTTPPSVYPLAPGSAAQTNSMVTLGCLVKGYFPEPVTVTWNSGSLSSGVHTFPAVLQSDLYTLSSSVTVPSSTWPSETVTCNVAHPASSTKVDKKIVPRDCGCKPCICTVPEVSSVFIFPPKPKDVLTITLTPKVTCVVVDISKDDPEVQFSWFVDDVEVHTAQTQPREEQFNSTFRSVSELPIMHQDWLNGKEFKCRVNSAAFPAPIEKTISKTKGRPKAPQVYTIPPPKEQMAKDKVSLTCMITDFFPEDITVEWQWNGQPAENYKNTQPIMDTDGSYFVYSKLNVQKSNWEAGNTFTCSVLHEGLHNHHTEKSLSHSPGK
light: EIVLTQSPATLSLSPGERATLSCRASQSVSSYLAWYQQKPGQAPRLLIYDASNRATGIPARFSGSGSGTDFTLTISSLEPEDFAVYYCQQRSNWPPALTFGGGTKVEIKRADAAPTVSIFPPSSEQLTSGGASVVCFLNNFYPKDINVKWKIDGSERQNGVLNSWTDQDSKDSTYSMSSTLTLTKDEYERHNSYTCEATHKTSTSPIVKSFNRNEC
notes: also called NS1-mIgG1
As to B7, the Kd with hCD137(FXa digested) [12] was found to be 54.4 nM; with hCD137(FXa digested) [13], 53.6 nM; with hCD137(FXa digested) [14] it was 56.2 nM; with hCD137(FXa digested) [15] it was 61.7 nM.

B8: dBBK102-P253 (antibody, human IgG1, kappa, V domains shown)
VH: QVQLVQSGAEVKKPGSSVKVSCKASGGAFSYYLISWVRQAPGQGLEWMGFVDPIRGGAFYAQKFQGRVTITADESTSTAYMELSSLRSEDTAVYYCARDRPVNAAPRGAFDIWGQGTLVTVSS
VL: DIVMTQSPLSLPVTPGEPASISCRSSQSLVWNDRNTFLSWYLQKPGQSPQLLIYEIRKRFYGVPDRFSGSGSGTDFTLKISRVEAEDVGVYYCMQAQDFPRTFGQGTKVEIKR
Turning to B8, the absorbance ratio with hCD137.1.2-F.G1d is 1.2; in the experiment with hCD137.1-F-G1d, 1.2; with hCD137.3.4-F.G1d it was 1.1; with hCD137.2.4-F.G1d, 1.1; with hCD137.2.3-F.G1d it was 1.1.

(Values after patent US20210324099A1 (Chugai, published 2021).)
